Numbering of substitutions follows the chain as printed. Names and notes keep the numbering of the source.

Assay [1] has as its target T1, VEGF-121-His (inhouse production) (human, UniProt P15692 207-395).
T1 construct: Treated as one molecule; also called hVEGF-A121; not shown: His tag
T1 sequence: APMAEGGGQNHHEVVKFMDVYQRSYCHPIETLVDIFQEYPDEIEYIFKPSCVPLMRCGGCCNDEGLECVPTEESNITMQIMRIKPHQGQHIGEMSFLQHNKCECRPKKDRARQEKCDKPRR
Description: VEGF:VEGF-R1 inhibition ELISA (Example 4, as Example 2): 0.34 nM VEGF-121-His pre-incubated with the Fab, then added to plate-bound biotinylated VEGF-R1, anti-His POD detection; blocked partner: VEGF-R1.

Assay [2] addresses T1, VEGF-121-His (inhouse production). Briefly: VEGF:VEGF-R1 inhibition ELISA (Example 4, as Example 2): 0.7 nM VEGF-121-His pre-incubated with the Fab, then added to plate-bound biotinylated VEGF-R1, anti-His POD detection; blocked partner: VEGF-R1. On the procedure: Plates were incubated for 1 h at room temperature. […] Plates were incubated for 1 h at room temperature. […] After washing 3 times with 90 μl/well PBST-buffer, 25 μl/well detection antibody (anti His POD, Bethyl, #A190-114P, 1:12000) in 1×OSEP was added. After incubation for 1 h at room temperature plates were washed 3 times with 90 μl PBST-buffer. 25 μl TMB (Roche, #11 835 033 001) was added to all wells simultaneously. After 10 min incubation at room temperature, signals were detected at 370 nm/492 nm on a Tecan Safire 2 Reader.

The target in assay [3] is T2, VEGF (as used in the Biacore active concentration test of Example 6) (Homo sapiens (Human), UniProt P15692 27-147, VEGF is a disulfide-linked homodimer; one protomer is given).
T2 sequence: T1 sequence
Description: Biacore, normalized to unstressed aliquot; Fab stressed 2 w/37 C/pH 7.4. As to the method:
(§1) Antibody samples were formulated in 20 mM His/HisCl, 140 mM NaCl, pH 6.0, and were split into three aliquots: one aliquot was re-buffered into PBS, respectively, and two aliquots were kept in the original formulation. The PBS aliquot and one His/HisC1 aliquot were incubated for 2 weeks (2 w) at 40° C. (His/NaCl) or 37° C. (PBS) in 1 mg/ml, the PBS sample was incubated further for total 4 weeks (4 w). The third control aliquot sample was stored at −80° C.
On the technique in general: In SPR one partner is held on a chip, and binding of the other changes the refractive index at the surface.

Assay [4] addresses T1, VEGF-121-His (inhouse production). Description: SPR, hVEGF-A121 captured by anti-His antibody, 25 C. As to the method:
(§2) An anti-His capturing antibody (GE Healthcare 28995056) was immobilized to a Series S Sensor Chip C1 (GE Healthcare 29104990) using standard amine coupling chemistry resulting in a surface densitiy of 500-1000 resonance units (RU). […] The surface was regenerated by injecting 10 mM Glycine pH 1.5 for 60 s. […] Rate constants were calculated using the Langmuir 1:1 binding model within the Biacore Evaluation software.
(§3) The affinity of the antibodies was determined by SPR using the same methods as described in Example 2.

The target is the same in assay [5]. Briefly: SPR, hVEGF-A121 captured by anti-His antibody, 37 C. On the procedure: as §2, §3
The target of assay [6] is T2, VEGF (as used in the Biacore active …). Description: Biacore, normalized to unstressed aliquot; Fab stressed 2 w/40 C/pH 6.0. On the procedure: as §1
Assay [7] shares this target. Briefly: Biacore, normalized to unstressed aliquot; Fab stressed 4 w/37 C/pH 7.4. On the procedure:
as §1

B1: VEGF-P1AD8674 Fab (Fab, V domains shown)
VH: EVQLVESGGGLVQPGGSLRLSCAASGFTFTNYAMTWVRQAPGKGLEWVSSIGNGGGIYTYYADSVKGRFTISRNNAENTLYLQMNSLRAEDTAVYYCAKGDNLFDSWGPGTLVTVSS
VL: DIQMTQSPASLSASVGDRVTITCRASQSIYSSLNWYQQKPGKAPKLLIYASTLQSGVPSRFSGSASGTDFTLTISSLQPEDVATYYCQQYQNFPRTFGQGTKLEIKR
Regarding B1, the binding result in assay [1] is given as “binds”.

B2: VEGF-0112 Fab (Fab, V domains shown)
VH: B1 VH with N53S, N74D, A76S, E77K
VL: B1 VL
As for B2, in assay [2], the binding result is “binds”.

B3: VEGF-P1AE3519 Fab (Fab, V domains shown)
VH: B1 VH with N53S, N74D, A76W, E77K
VL: B1 VL
notes: Control variant of VEGF-0089 with N52aS in H-CDR2 and S74W in H-FR3 (Kabat)
Regarding B3, the “VEGF-binding activity after stress (relative active concentration)” value in assay [3], in assay [6] and in assay [7] was 102 in each case. The dissociation constant Kd (usually the concentration at which binding is half-saturated) turned out to be 119 pM in assay [4] and 94 pM in assay [5].

The values are drawn from US20210047395A1 (Hoffmann-La Roche, published 2021).
